Experiments:
Lon-His (C. crescentus) [1] = target: Lon-His (C. crescentus) (UniProt B8GX12)
Lon-His (C. crescentus) [2] = target: Lon-His (C. crescentus) (UniProt B8GX12); remark: listed apart in the source
[3] = target: Lon^EQ (Lon E420Q, Walker-B mutant) (C. crescentus) (UniProt B8GX12); experiment: native MS; purified proteins buffer exchanged into 200 mM ammonium acetate pH 8.0, mixed in equimolar ratios (LarA also in 3-fold excess); nano ESI, Waters Synapt G2, source temperature 30 °C
[4] = target: the molecule itself; experiment: as above

For 6xHis-tagged SciP (natural protein), the Km of Lon-mediated His-SciP degradation in vitro, in the presence of 2 µM LarA (0.05 µM Lon-His hexamer) (Lon-His (C. crescentus) [1]) was 1.8 µM and the Km of Lon-mediated His-SciP degradation in vitro, without LarA (0.05 µM Lon-His hexamer) (Lon-His (C. crescentus) [1]) was 9.3 µM.

In the case of LarA, purified (natural protein), the rate of Lon-mediated His-SciP degradation against LarA concentration (0 to 15 µM), highest at 2 µM LarA, compared with reactions lacking LarA (Lon-His (C. crescentus) [2]) is reported as 5.5 fold and the stoichiometry N (LarA molecules per Lon^EQ hexamer) [3] is reported as 6.

B1: Lon^EQ (Lon E420Q, Walker-B mutant) (enzyme, C. crescentus, UniProt B8GX12 1-799, looked up)
chain: MSELRTLPVLPLRDIVVFPHMVVPLFVGRDKSVRALEEVMRGDKQILLVTQKNSADDDPAPGDIFEVGVLATVLQLLKLPDGTVKVLVEGKARAAVVSFTDQESYYEAQIGEVSEDDGAGPEAEALSRAVVEQFENYVKLNKKVPPEALASIPQIAEPGKLADSIAAHLSVKIGDKQNLLEIFDVVKRLEKVFALMEGEISVLQVEKKIRSRVKRQMEKTQREYYLNEQMKAIQRELGDPDDARDELIDLEKRIKKTKLSKEARTKAESELKKLRNMSPMSAESTVVRNYLDWLLSIPWGKAKTKKIDLVESEGILDADHYGLEKVKERILEYLAVQARTNSLKGPILCLVGPPGVGKTSLGKSIAKATGREFVRMSLGGVRDEAEIRGHRRTYIGSMPGKVVQSMKKAKTTNAFVLLDQIDKMGSDYRGDPASALLEVLDPSQNSTFGDHYLEVDYDLSQVMFVTTANSLNMPQPLLDRMEIIRIPGYTEDEKLEIAKRHILPKLAKDHGLKPAEFIVPDKAIRDLIRYYTREAGVRSLERELGALARKTVRDLAREKVASITIDDERLAKYAGVKKYRYGETDEVDQVGIVTGLAWTEFGGDILTIEAVKMPGKGRMQITGNLKDVMKESIAAANSYVRSRALQFGIKPPVFEKTDVHIHVPDGATPKDGPSAGIAMALAMVSVLTGIPIRKDIAMTGEITLRGRVTAIGGLKEKLLAALRSGVKTVLIPQENEKDLADVPQTVKDGLEIIPVSTVDEVLKHALTGPLTPVEWNEAEEPITTSAKKDDGDSDAMLTH
notes: predicted molecular weight of the hexamer 529,458 Da; Deficient in ATP hydrolysis; source: E. coli BL21-SI/pCodonPlus, purified (Talon, Ulp1 cleavage, anion exchange)
B1 was tested, and the “stoichiometry N” value [4] was 6.

— paper PMC10665427, “The heat shock protein LarA activates the Lon protease in response to proteotoxic stress” (Nature Communications, 2023)
